# Assay results from doi:10.1101/2025.03.30.646161.
# Tested on: P04156
# Conditions: AUC
substance,measurement,value
Recombinant huPrP (23-230) from E. coli,percent of total signal as aggregates,about 71 % of total signal
same,percent of total signal as large aggregates,58.3 % of total signal
